Results as given in the nanobody polyreactivity screen of Harvey et al. (2022).

Experiment: yeast display, Sf9 membrane polyspecificity reagent, FACS + sequencing; frameworks hold sequencing errors
Summary of the method: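 Genes from sorted yeast were amplified by colony PCR, read by MiSeq 2 × 250 sequencing and filtered on CDR length. These cells carried a synthetic nanobody library in Saccharomyces cerevisiae BJ5465 and were sorted by FACS into low and high (top ~1%) gates on anti-HA and streptavidin fluorescence. Polyreactivity is labelled according to the gate of origin.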

Sequence | polyreactivity (PSR sort gate)
QVQLQESGGGPVQAGGSMRLSCAASGSISELRPMGWYREAPGKERELVAGISTGGSTNYADSVKGRFTISRDNAKKTVFLQMNSLKPEDTAVYYCAAASYGEGSYDYWGQGTQVTVRS | high polyreactivity
QVQLVESGGGLVQAGGSLRLSCAASGIILPVYAMGWYRPAPGKERELVAAIRWSSGRTYYADSVKGRFTISRDNAKNTVYLQMNSLKPEDTAVYYCAAYPSSEYDYWGQGTQVTVSS | low polyreactivity
QVQLVDSGGGLVQAGGSLRLSCAASGSNFGTYAMGWYRQAPGKERELVAAITTNGVSTYYADSVKGRFTISRDNAKNTVYLQMNSLKPEDTAVYYCAAPIQAWVRHLADIRYDYWGQGTQVTVSS | low polyreactivity
QVQLVESGGGLVQAGGSLRLSCAASGRIFRGYAMGLYRQAPGKEREFVAAISWSGGDTYYADSVKGRFTISRDTAKNTVYLQMNSLKPEDTAVYYCATEYRLIPGPFVWPYDYWGQGTQVTVSS | high polyreactivity
QVQLVESGGGLVQAGCSLRLSCAASGFTFDDYAMGWYRQAPGKERELVAAISWSGGSTYYADSVKGRFTISRDNAKNTVYLQMNSLKPEDTAVYYCAALRTGAQYSTMDYWGQGTQVTVSS | low polyreactivity
QVQLVESGGGLVQAGGSLRLSCAASGSIFVYNAMGWYRQAPGKERELVAAIDTVGSTNYADSVKGRFTISRDNAKNTVYLQMNSLNPEDSAVYYCAVVTPYWSFYEQVIPSNYWGQGTQVSVSS | low polyreactivity
QVQLVESGGGLVQAGGSLRLSCAASGRIFRYYAMGWYRQATGKERELVAAISRSGGSTYYADSVKGRFTISRDNAKNTVYLQMNSLKPEDTAVYYCNAQWRSTDPYPPGYDYWGQGTQVTVSS | high polyreactivity
QVQLVESGGGLVQAGGSLRLSCAASGRTFWWNAMAWYTQAPGKERELVAVISKRGGTTYYADSVKGRFTNSRDNAKNTVYLPMNSLKPEDTAVYVFAADQQSHYGYWGQGTQVTVSS | high polyreactivity
QVQLVESGGGLVQAGGSLRLSCAASGSIFFPNAMGWYRQAPGKERELVAAINWSGDSTYYADSVKGRFTISRDNAKNTVYLQMNSLKPEDTAVYYCNATYPWFDYDYWGQGTQVTVSS | low polyreactivity
QVQLVESGGGLVQAGGSLRLSCAASGRTFEHYAMVWYRPAPGKERELVAAITWSGVSTYYADSVKGRFTISRDNAKNTVYLQMNSLKPEDTAVYYCAAKWLGYGFDYWGQGTQVTVSS | low polyreactivity
QVQLVESGGGLVQAGGSLRLSCADSGRIFGRYAMGWYRQAPGQERELVAGISARGGSTYYADSVKGRFTISRDNAKNTVYLQMNRLKPEDTAVYYCAAAGYRGGGYWGQGTQVTVSS | high polyreactivity
QVQLVESGGGLVQAGGSHRLSCAASGRTFSPYVMGWSREAPGKEREYVARITWSGGSTYYADSVKGRFTISRDNAMYTVYLQMNSLKPEDTAVYYCNARGVFYVYKHDYWGQGTQVTVSS | high polyreactivity
QVQLVESGGGLVQAGGSLRLSCAASGRTFTRNAMGWYRQAPGKERELVAAISAGGTRTYYADSVKGRFTISRDNAKNTVYLQMNSLIPEDTAVYYCAKPIAPAPNAYPAYDYWGQGTQVTVSS | high polyreactivity
QVQLVESWVGLVQAGGSLSLSCDASGFTILGYAMGWYRQAPGKERELVASITYGGDSTYYADSVKGRFTISRDNAKNTVYLQINCLKPEDTAVYYCNARPSYWWGGRLYGYWGQGSQVTVSS | high polyreactivity
QVQLVDSGGGLVQAGGSLRLSCAASGLIFKLNAMGWYRQAPGKERELVAAIRASTGSTYYADSVKGRFTISRDNAKNTVYLQMNSLKPEDTADYYCAVRLRWYFFLMDYWGQGTQVTVSS | high polyreactivity
QVQLVESGGGLVQAGGSLRLSCAASGFIFSGYAMGWYRQAPGKERELVATISGSGGSTYYADSVKGRFTISRDNAKNTVYLQMNSLKPEDTAVYYCAKRSIVGYRYSGYDYWGQGTQVTVSS | high polyreactivity

Sequence | polyreactivity (PSR sort gate)
QVQLVESGGGLFQAGGSLSLSCAASGFIFYTNAMGWYRQAPGKERELVATITTSGGRTYYADSVKGRFTISRDNAKNTVFLQMNSLKPEDTAVDYCATRYVVIEYDYWGQGTQVTVSS | low polyreactivity
QVQLVESGGGLVQAGGSLRLSCAASGTFTVNTMGWYRQAPGKERELVAAISTGDTTTYADSVKGRFTISRDNAKNTVYLQMNSLKPEDTAVYYCNVDIGVYAYESDYWGQGTQVTVSS | low polyreactivity
QVQLVESGGGLVQAGGSLRLSCAASGSTFFGNTMGWYRQAPGKERELVATITRRGGSTYYADSVKGRFTMSRDNAKNTVYLQMNSLKPEDTAVYYCANRGPYTKYDYWGQGTQVTVSS | low polyreactivity
QVQLVESGGGLVQAGGSLRLSCAASGFIFAVNAMGWYRPAPGKERELVAAISRSGGTTYYADSVKGRFTISRDNAKNTVYLQMNSLKPEDTAVYYCARSSGLRSWRSSDYWGQGTQVTVSS | high polyreactivity
QVQLVESGGGLVQAGGSLRLSCAASGRIFYYYAMGWYRQAPGTERELVASINSVGTTTYADSVKGRFTISRDNAKNTVYLEMNSLKPEDTAVYYCARDTGSIYYDGYEYDYWGQGTQVTVSS | low polyreactivity
QVQLVESGGGLVQAGGSLRLSCAASGYTFKAYAMGWYRQAPGKERELVAGISRSGGSTYYADSVKGRFTISRDNAKNTVYLQMNSLKPEDTAVYYCAADSFSWETVVPSVFEFDYWGQGTQVTVSS | low polyreactivity
QVQLVESGGGLVQAGGSLRLSCAASGRIFGWNAMGWYRQAPGKERELVASIRSGGRTNYADSVKGRFTISRDNAKNTVYLQMNSLKPEDTAVYYCAVGPYYQSTQIYDYWGQGTQVTVSS | low polyreactivity
QVQLVESGGGLVQAGGSLRLSCAASGSTFDSYAMGWYRQAPGKERELVAAITTTGGSTFYADSVKGRFTISRDNAKNTVYLQMNSLKPEDTAVYYCADDDGWQEFEYWGQGTQVTVSS | low polyreactivity
QVQLVESGGGLVQAGGSLRLSCAASRSTFPRYAMGWSRQAPGKERELVAAISSSGRTYYADSVKGRFTISRDNAKNTVYLQMNSLKPEDTAVYYCNAPVARGEASYYWGQGTEVTVSS | high polyreactivity
QDQLVESGGGLVQAGGSLRLSCAASGSTISGSAMGWYRQAPGKVRELVATMSRGGSTTYADSVKGRFTISRDNAKNTVYLQMNSLKPEDTAVYYCAAQTYVWWVKYHSGGQGTQVTVSS | low polyreactivity
QVQLVESGGGLVQAGGSLRLSCAASGRTFYYNDMGWYRQAPGKERELVATISSGGSTYYADSVKGRFTISRDNAKNTVYLQMNSLKPEDTAVYYCAKRRRYDGWYAGPLYKYDYWGQGTQVTVSS | low polyreactivity
QVQLVESGGGLGQAGGSLRLSCAASGSIFDWYAMGWYRKAPGKEGELVAAISSGDSTYYADSVKGRFTISRDNAKNTFYLQMNSLKPEDTAVYYCAAVTKLSGIRYNYWGQGTQVTVSS | low polyreactivity
QVQLVESGGGLVQAGGSLRLSCAASGRTFAGNAMGWYRQAPGKERELVATITSRGTITYYADSVKGRFTISRDNAKNTVYLQMHSLKPEDTAVSYCNVRYYFPRYQQPYQLNEYYYWGQGTQVTVSS | low polyreactivity
QVQLVESGGGLVQAGGSLRLSCAASGRIHVYTMRWYRQAPGQERELVAAITWSGTSTNYADSVKGRFTLSRDNAKNTVYLKMNILKPEDTAVYYCAADISGVLSVSNVRGFDYWGQGTQVTVSS | low polyreactivity
QFQLVESGGGLVQAGGSLRLSCAASGRTFKKYAMGWYRQAPGKESELVAAITFSGGSTYYADSVKGRFTISRDNANNTVYLQMNSLKPEDTAVYYCAAKRLGGSYGSDYWGQGTQVTVSS | high polyreactivity
QVQLVESGGGLVQAGGSLRLSSAASGRIFWFNAMGWYRQAPGKEREWVATISSGDSTNYADSVKGRFTISRDNAKNTVYLQMNSLKPDDTAVYYCNARVSHVQVGFDSWGQCTQVTVSS | low polyreactivity
